T1: Hot1 (Saccharomyces cerevisiae BY4741, UniProt Q03213 1-719)
T1 sequence: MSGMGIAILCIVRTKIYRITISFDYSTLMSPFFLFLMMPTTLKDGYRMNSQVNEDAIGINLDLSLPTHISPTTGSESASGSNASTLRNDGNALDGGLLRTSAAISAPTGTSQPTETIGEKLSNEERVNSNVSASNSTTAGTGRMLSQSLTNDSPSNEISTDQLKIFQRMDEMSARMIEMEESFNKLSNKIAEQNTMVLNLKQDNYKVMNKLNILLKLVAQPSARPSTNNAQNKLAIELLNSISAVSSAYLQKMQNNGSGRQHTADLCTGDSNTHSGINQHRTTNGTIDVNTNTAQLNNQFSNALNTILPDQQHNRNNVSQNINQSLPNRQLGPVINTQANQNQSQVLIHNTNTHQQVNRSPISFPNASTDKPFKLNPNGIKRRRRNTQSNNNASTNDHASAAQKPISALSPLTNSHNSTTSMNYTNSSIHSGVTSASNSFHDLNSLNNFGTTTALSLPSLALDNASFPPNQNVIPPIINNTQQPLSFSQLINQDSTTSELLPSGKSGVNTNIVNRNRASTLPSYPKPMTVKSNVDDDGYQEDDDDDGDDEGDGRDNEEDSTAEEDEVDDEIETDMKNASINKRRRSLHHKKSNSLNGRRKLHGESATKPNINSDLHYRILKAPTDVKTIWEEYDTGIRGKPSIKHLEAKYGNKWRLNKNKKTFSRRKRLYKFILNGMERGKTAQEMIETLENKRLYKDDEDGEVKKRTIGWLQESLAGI


Experiments:
Hot1 [1] = target: T1, Hot1; assay: EMSA
Hot1 [2] = target: T1, Hot1; assay: competition

Row | Binder | binding result (Hot1 [1]) | binding result (Hot1 [2])
1 | STL1 promoter HoRE, E6 probe (dsDNA) DNA 1: CTATTCCACCGCATTTGGCCCATTTGGCTCACTTTGACTCAACTTGCGTCATTTTAACTGATATG DNA 2: CATATCAGTTAAAATGACGCAAGTTGAGTCAAAGTGAGCCAAATGGGCCAAATGCGGTGGAATAG | binds | 
2 | RM9 (E6 with mutated HoRE repeats) (dsDNA) DNA 1: CTATTCCACCGCATCTGGTCCATCTGGTTCACTCTGATTCAACTTGCGTCATTTTAACTGATATG DNA 2: CATATCAGTTAAAATGACGCAAGTTGAATCAGAGTGAACCAGATGGACCAGATGCGGTGGAATAG |  | no binding
